Laboratory results taken from publication PMC8387239, “Structural and functional characterization of the intracellular filament-forming nitrite oxidoreductase multiprotein complex” (Nature Microbiology, 2021).
Each block holds one molecule with its values, some of them ahead of it.

Legend:
[1] = target: NXR-T (Kustd1705), recombinant, as used for analytical ultracentrifugation (tagged version not stated) (Kuenenia stuttgartiensis); assay: AUC; sedimentation velocity and sedimentation equilibrium; 25 mM HEPES/KOH pH 7.5, 25 mM KCl; 25,000 or 30,000 r.p.m., 24 h, 20 °C; scans at 415 nm
[2] = target: Broful_01488, NXR-T homologue from Brocadia fulgida, recombinant, N-terminal His-tag cleaved (Brocadia fulgida); assay: crystal structure; Broful_01488 after cleavage of the N-terminal His-tag; 0.02 M LiCl, 0.02 M glycine pH 10.0, 33% PEG 1000, 0.05 M MgCl2; 4.0-4.5 Å, partial model
[3] = target: NXR-T (Kustd1705), tubule-inducing NXR subunit, recombinant, N-terminal His-tag cleaved (Kuenenia stuttgartiensis); assay: cryo-EM structure; helical reconstruction of tubules reconstituted from KsNXR-ABC and Kustd1705, 5.8 Å after density modification
[4] = target: T1, anammoxosomal tubules (NXR A, B, C and T subunits) (Candidatus Kuenenia stuttgartensis, UniProt Q1PZD8); assay: spectrophotometric, ferricyanide reduction at […] nm; format: biochemical; settings: 2 mM sodium nitrite; 800 µM ferricyanide; 50 mM KPi, 150 mM NaCl, pH 7.25; 35 °C; without dodecyl maltoside
T1 construct: gene narG; native tubules purified from K. stuttgartiensis cells by size exclusion and sucrose density gradient; with nitrite oxidoreductase subunit B, iron-sulfur subunit (NarH-like); nitrite oxidoreductase subunit C, haem b-containing subunit; nitrite oxidoreductase tubule-inducing subunit T, monohaem cytochrome c
T1 sequence (Q1PZD5 1-410 partner, one chain of several): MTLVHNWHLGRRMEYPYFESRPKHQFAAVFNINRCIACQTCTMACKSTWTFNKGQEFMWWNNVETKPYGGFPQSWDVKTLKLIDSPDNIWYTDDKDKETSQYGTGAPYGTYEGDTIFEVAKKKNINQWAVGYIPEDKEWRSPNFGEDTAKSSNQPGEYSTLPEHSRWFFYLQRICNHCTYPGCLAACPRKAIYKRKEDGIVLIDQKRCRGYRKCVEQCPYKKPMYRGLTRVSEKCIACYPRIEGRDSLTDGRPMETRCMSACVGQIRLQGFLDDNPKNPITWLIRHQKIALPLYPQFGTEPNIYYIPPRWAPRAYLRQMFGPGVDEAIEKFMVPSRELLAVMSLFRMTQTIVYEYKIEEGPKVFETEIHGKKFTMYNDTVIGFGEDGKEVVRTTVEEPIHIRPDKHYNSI
T1 sequence (Q1PZD4 29-322 partner, one chain of several): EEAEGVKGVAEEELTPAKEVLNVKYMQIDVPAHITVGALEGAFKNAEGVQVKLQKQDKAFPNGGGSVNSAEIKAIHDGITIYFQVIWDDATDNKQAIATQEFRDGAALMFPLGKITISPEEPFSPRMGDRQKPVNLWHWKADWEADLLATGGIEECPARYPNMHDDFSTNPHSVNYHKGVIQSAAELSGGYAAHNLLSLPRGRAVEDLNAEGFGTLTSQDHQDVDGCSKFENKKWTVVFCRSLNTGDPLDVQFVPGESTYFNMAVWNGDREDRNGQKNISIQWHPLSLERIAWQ
T1 sequence (A0A2C9CDL6 21-180 partner, one chain of several): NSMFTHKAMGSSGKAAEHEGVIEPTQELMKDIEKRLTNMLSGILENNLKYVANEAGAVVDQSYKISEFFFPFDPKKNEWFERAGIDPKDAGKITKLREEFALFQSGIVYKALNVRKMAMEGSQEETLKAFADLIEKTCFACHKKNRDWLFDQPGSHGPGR

purified protein [5] = substrate: O=NO; assay: purified protein; format: biochemical, Candidatus Kuenenia stuttgartensis; settings: 800 µM ferricyanide as electron acceptor, 50 mM KPi, 150 mM NaCl, pH 7.25, 35 °C
purified protein [6] = substrate: O=[N+]([O-])O; assay: purified protein; format: biochemical, Candidatus Kuenenia stuttgartensis; settings: reduced methyl viologen as electron donor, 50 mM KPi, pH 7.2, 35 °C, anaerobic

stoichiometry N [1]: 2
Molecule: NXR-T (Kustd1705), recombinant, as used for analytical ultracentrifugation (tagged version not stated) (natural protein)

stoichiometry N [2]: 2
Molecule: Broful_01488, NXR-T homologue from Brocadia fulgida, recombinant, N-terminal His-tag cleaved (natural protein)

stoichiometry N [3]: 2
Molecule: NXR-T (Kustd1705), tubule-inducing NXR subunit, recombinant, N-terminal His-tag cleaved (natural protein)

Molecule: O=NO [nitrite]
spectrophotometric, ferricyanide reduction at 420 nm [4]: can be disassembled by adding the detergent dodecyl maltoside, show nitrite oxidation activity

B1: KsNXR-ABC (Candidatus Kuenenia stuttgartensis) (protein)
chain: FRLLKPAVVVDNPLDTYPDRRWESVYRDQYQYDRTFTYCCSPNDTHACRIRAFVRNNVMMRVEQNYDHQNYSDLYGNKATRNWNPRMCLKGYTFHRRVYGPYRLRYPLIRKGWKRWADDGFPELTPENKTKYMFDNRGNDELLRASWDEAFTYASKGIIHITKKYSGPEGAQKLIDQGYPKEMVDRMQGAGTRTFKGRGGMGLLGVIGKYGMYRFNNCLAIVDAHNRGVGPDQALGGRNWSNYTWHGDQAPGHPFSHGLQTSDVDMNDVRFSKLLIQTGKNLIENKMPEAHWVTEVMERGGKIVVITPEYSPSAQKADYWIPIRNNTDTALFLGITKILIDNKWYDADYVKKFTDFPLLIRTDTLKRVSPKDIIPNYKLQDISDGPSYHIQGLKDEQREIIGDFVVWDAKSKGPKAITRDDVGETLVKKGIDPVLEGSFKLKTIDGKEIEVMTLLEMYKIHLRDYDIDSVVSMTNSPKDLIERLAKDIATIKPVAIHYGEGVNHYFHATLMNRSYYLPVMLTGNVGYFGSGSHTWAGNYKAGNFQASKWSGPGFYGWVAEDVFKPNLDPYASAKDLNIKGRALDEEVAYWNHSERPLIVNTPKYGRKVFTGKTHMPSPTKVLWFTNVNLINNAKHVYQMLKNVNPNIEQIMSTDIEITGSIEYADFAFPANSWVEFQEFEITNSCSNPFIQIWGKTGITPVYESKDDVKILAGMASKLGELLRDKRFEDNWKFAIEGRASVYINRLLDGSTTMKGYTCEDILNGKYGEPGVAMLLFRTYPRHPFWEQVHESLPFYTPTGRLQAYNDEPEIIEYGENFIVHREGPEATPYLPNAIVSTNPYIRPDDYGIPENAEYWEDRTVRNIKKSWEETKKTKNFLWEKGYHFYCVTPKSRHTVHSQWAVTDWNFIWNNNFGDPYRMDKRMPGVGEHQIHIHPQAARDLGIEDGDYVYVDANPADRPYEGWKPNDSFYKVSRLMLRAKYNPAYPYNCTMMKHSAWISSDKTVQAHETRPDGRALSPSGYQSSFRYGSQQSITRDWSMPMHQLDSLFHKAKIGMKFIFGFEADNHCINTVPKETLVKITKAENGGMGGKGVWDPVKTGYTAGNENDFMKKFLNGELIKVDA
notes: untagged; with nitrite oxidoreductase subunit B, iron-sulfur subunit (NarH-like); nitrite oxidoreductase subunit C, haem b-containing subunit
Km (purified protein [5]): 22 ± 5 µM | Km (purified protein [6]): 14 ± 1 µM
